B1: Protein NRD1 (Saccharomyces cerevisiae), P53617 (parent)
chain: MQQDDDFQNFVATLESFKDLKSGISGSRIKKLTTYALDHIDIESKIISLIIDYSRLCPDSHKLGSLYIIDSIGRAYLDETRSNSNSSSNKPGTCAHAINTLGEVIQELLSDAIAKSNQDHKEKIRMLLDIWDRSGLFQKSYLNAIRSKCFAMDISNNTANTASQQLSLDPKQRSKQILSNLKKSPPLNLNISLPTDLTSTDPAKQQAALFQVIAALQKHFKTLPSHTSVGTVAPPQAHTITEYGSRRERERERERYNSRRNRSRSPPAPFSQPSTGRKDRYPSVAQDQYSIGAPNTTFGTNNHHLYPDELNVSNNPHYRPKPVSYDSTLPPDHIKVYSRTLFIGGVPLNMKEWDLANVLKPFAEVQSVILNNSRKHAFVKVYSRHEAENVLQNFNKDGALPLRTRWGVGFGPRDCCDYQHGYSIIPMHRLTDADKKWSVSAQWGGTSGQPLVTGIVFEEPDIIVGEGVSSKAISQKMPTDSGRNGPRSGKPNKSGSISSISPVPYGNAPLASPPPQQYVQPMMQQPYGYAPNQPLPSQGPAAAAPPVPQQQFDPTAQLNSLMNMLNQQQQQQQQS
partner: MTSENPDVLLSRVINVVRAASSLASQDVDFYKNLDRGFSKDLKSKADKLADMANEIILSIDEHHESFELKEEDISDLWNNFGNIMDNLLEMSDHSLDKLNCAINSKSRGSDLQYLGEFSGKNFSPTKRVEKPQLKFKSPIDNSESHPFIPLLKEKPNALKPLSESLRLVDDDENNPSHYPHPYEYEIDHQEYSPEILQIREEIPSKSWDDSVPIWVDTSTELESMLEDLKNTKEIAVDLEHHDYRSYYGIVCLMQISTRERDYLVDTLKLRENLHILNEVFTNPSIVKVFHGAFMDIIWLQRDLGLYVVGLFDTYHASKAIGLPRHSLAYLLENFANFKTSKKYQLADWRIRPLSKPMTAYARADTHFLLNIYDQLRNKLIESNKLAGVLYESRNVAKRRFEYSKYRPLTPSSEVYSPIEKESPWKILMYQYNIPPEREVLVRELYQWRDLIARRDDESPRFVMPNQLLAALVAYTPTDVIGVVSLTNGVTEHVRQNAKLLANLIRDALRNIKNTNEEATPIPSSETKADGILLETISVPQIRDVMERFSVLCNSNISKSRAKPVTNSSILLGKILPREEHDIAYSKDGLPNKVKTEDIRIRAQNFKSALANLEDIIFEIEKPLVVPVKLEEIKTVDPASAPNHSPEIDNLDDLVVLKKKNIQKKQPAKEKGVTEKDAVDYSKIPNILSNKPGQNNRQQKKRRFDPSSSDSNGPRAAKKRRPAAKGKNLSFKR

Variants of: B1
Settings: with rrp6_yeast RRP6, Q12149

effect of a mutation on the interaction | Variant
with no effect | MQQDDDFQNFVATLESFKDLKSGISGSRIKKLTTYALDHIDIESKIISLIIDYSRLCPDSHKLGSLYIIDSIGRAYLDETRSNSNSSSNKPGTCAHAINTLGEVIQELLSDAIAKSNQDHKEKIRMLLDIWDRSGLFQKSYLNAIRSKCFAMDISNNTANTASQQLSLDPKQRSKQILSNLKKSPPLNLNISLPTDLTSTDPAKQQAALFQVIAALQKHFKTLPSHTSVGTVAPPQAHTITEYGSRRERERERERYNSRRNRSRSPPAPFSQPSTGRKDRYPSVAQDQYSIGAPNTTFGTNNHHLYPDELNVSNNPHYRPKPVSYDSTLPPDHIKVYSRTLFIGGVPLNMKEWDLANVLKPFAEVQSVILNNSRKHAFRKVYSRHEAENVLQNFNKDGALPLRTRWGVGFGPRDCCDYQHGYSIIPMHRLTDADKKWSVSAQWGGTSGQPLVTGIVFEEPDIIVGEGVSSKAISQKMPTDSGRNGPRSGKPNKSGSISSISPVPYGNAPLASPPPQQYVQPMMQQPYGYAPNQPLPSQGPAAAAPPVPQQQFDPTAQLNSLMNMLNQQQQQQQQS [V379R]

From IntAct's records for PubMed 16427013
